The source of these data is patent publication US9872893B2, “Endolysins active against Staphylococcus bacteria, pharmaceutical compositions, and methods relating thereto” (priority 2014, dated 2018).

A short description of data set [1]: circular dichroism melting experiments. It is filed as physicochemical. The conditions noted are these: 0.1 mg/ml, 20 mM sodium phosphate buffer pH 7, 20-95° C. at 1° C./min. On the procedure: CD experiments for wild-type (WT) and active-site mutants were performed on a Chirascan CD spectrometer (Applied Photophysics) equipped with a thermoelectrically controlled cell holder. CD spectra were obtained in the far-UV range (190-260 nm) in a 1 mm path length quartz cuvette at 1 nm steps with 5 second signal averaging per data point. Spectra were collected in triplicate, followed by averaging, baseline subtraction, smoothing and conversion to mean residue ellipticity (MRE) by the Pro-Data software (Applied Photophysics). Secondary structure prediction was performed using the Provencher and Glockner method (Provencher S W & Glockner J (1981) Estimation of globular protein secondary structure from circular dichroism. Biochemistry 20(1):33-7) provided by DICHROWEB (Whitmore L & Wallace B A (2004) DICHROWEB, an online server for protein secondary structure analyses from circular dichroism spectroscopic data. Nucleic Acids Res 32:W668-73).
Melting experiments were performed by heating PlyGRCS at a 0.1 mg/ml concentration in 20 mM sodium phosphate buffer pH 7 from 20° C. to 95° C. using a 1° C./min heating rate. MRE was monitored at 218 nm in a 1 mm path length quartz cuvette at 0.5° C. steps with 5 second signal averaging per data point. The melting data was smoothed, normalized and fit with a Boltzmann sigmoidal curve. The first derivative of the melting curve was then taken to determine the temperature (Tm) at which the folded and unfolded protein species in solution were at equilibrium (Fallas J A & Hartgerink J D (2012) Computational design of self-assembling register-specific collagen heterotrimers. Nat Commun 3:1087).
Background: CD spectra are sensitive to the conformation of chiral molecules.

The subject of another data set is S. aureus NRS-14. Description: cell wall binding by fluorescence microscopy. Details: species or system Staphylococcus aureus. The settings on record: 10 μg, detected via anti-His antibody and AlexaFluor 488 secondary. On the procedure:
An overnight culture of S. aureus NRS-14 was concentrated 5× in BP buffer and was incubated at room temperature with 10 μg SH3_5GRCS containing the 6× His tag for 10 minutes. A control without SH3_5GRCS was also utilized. The samples were washed with PBS and incubated for 10 minutes at room temperature with 1 μl mouse anti-His antibody (Gen Script). After washing with PBS, AlexaFluor-488 conjugated goat anti-mouse IgG (H+L) antibody (1 μl) (Invitrogen) was incubated with samples for an additional 10 minutes. Samples were washed again with PBS before being visualized via fluorescence and bright field microscopy. An Eclipse 80i epifluorescent microscope workstation (Nikon) with X-Cite 120 illuminator (EXFO) and Retiga 2000R CCD camera was used. NIS-Elements software (Nikon) was used for image analysis.

Data set [2] concerns stationary phase S. aureus NRS-14. Description: turbidity reduction assay (lytic activity). The conditions noted are these: equimolar concentrations; for lytic activity (in words): isolated domain. The class given is cell-based, Staphylococcus aureus. On the procedure:
Lytic activity was based on turbidity reduction assay (Nelson D C et al. (2012) Endolysins as antimicrobials. Adv Virus Res 83:299-365). Briefly, bacterial cells were centrifuged (4,000 RPM, 5 minutes, 4° C.), re-suspended in buffer and mixed 1:1 (v/v) with endolysin to a final OD600=1. OD600 readings were taken every 15 seconds for 20 minutes at 37° C. Endolysin activity was equated to the Vmax dictated by the linear portion of the resulting killing curve. Each experiment was performed in triplicate.
To determine dose response, PlyGRCS was serially diluted and each dosage (100 μl) was added in triplicate to a 96-well polystyrene microtiter plate (Nest Biotech Co, Ltd) just before addition of bacterial cells (100 μl) according to the turbidity reduction assay described above. For optimum pH determination, bacterial cells were suspended in 40 mM boric acid/phosphoric acid (BP) buffer, pH 3-11, and were challenged against PlyGRCS. The influence of NaCl on PlyGRCS activity was tested in BP buffer at the experimentally determined pH optimum using the same assay. The effect of divalent cations was determined using the turbidity reduction assay with several modifications. First, PlyGRCS was incubated at room temperature in PBS or PBS supplemented with 5 mM EDTA for 10 minutes. Second, the EDTA-treated samples received either no further treatment, or were supplemented with 6 mM CaCl2 or 6 mM MgCl2. Finally, the lytic active of the samples was then immediately assayed and compared to PlyGRCS in PBS prior to EDTA inactivation. Kinetic stability was evaluated (Son B et al. (2012) Characterization of LysB4, an endolysin from the Bacillus cereus-infecting bacteriophage B4. BMC Microbiol 12:33) with minor modifications. Lytic assays were performed in optimal conditions after PlyGRCS was incubated at indicated temperatures for 30 minutes and subsequently recovered on ice for 5 minutes.

The test system of another data set is Bacillus pumulis, BJ0055. Description: plate lysis assay (spectrum of lytic activity). Details: key: strong lytic zone = ++; weak lytic zone = +; no lytic zone = −. The class given is cell-based. The conditions noted are these: 6 μg. Here is the method:
(§1) The PlyGRCS spectrum of lytic activity was performed (Schmelcher M et al. (2012) Chimeric phage lysins act synergistically with lysostaphin to kill mastitis-causing Staphylococcus aureus in murine mammary glands. Appl Environ Microbiol 78(7):2297-305) with minor modifications. Bacterial cells were diluted in sterile PBS to an OD600=1, and 100 μl was spread on each plate. 10 μl spots (600 μg/ml) of PlyGRCS or CHAPGRCS were applied. Plates were incubated overnight at 37° C. Strength of lytic zones was defined qualitatively.

Data set [3] concerns Streptococcus pneumoniae, ATCC BAA-334. Description: plate lysis assay (spectrum of lytic activity). It is filed as cell-based. Details: key: strong lytic zone = ++; weak lytic zone = +; no lytic zone = −. The settings on record: 6 μg. Here is the method:
as §1

Data set [4] relates to Streptococcus pyogenes, D471. Description: plate lysis assay (spectrum of lytic activity). The settings on record: 6 μg. Details: key: strong lytic zone = ++; weak lytic zone = +; no lytic zone = −. The class given is cell-based. Here is the method:
as §1

Data set [5] deals with Staphylococcus aureus, NRS-385. Description: plate lysis assay (spectrum of lytic activity). The conditions noted are these: 6 μg; S. aureus NRS-385, MRSA. Details: key: strong lytic zone = ++; weak lytic zone = +; no lytic zone = −. The class given is cell-based. Here is the method:
as §1

The subject of data set [6] is Enterococcus facealis, EF24. Description: plate lysis assay (spectrum of lytic activity). The class given is cell-based. The conditions noted are these: 6 μg. Details: key: strong lytic zone = ++; weak lytic zone = +; no lytic zone = −. Here is the method:
as §1

Data set [7] has as its system Streptococcus uberis, ATCC 700407. Description: plate lysis assay (spectrum of lytic activity). The class given is cell-based. Details: key: strong lytic zone = ++; weak lytic zone = +; no lytic zone = −. The conditions noted are these: 6 μg. Here is the method: as §1
The test system of data set [8] is Streptococcus equi, ATCC 9528. Description: plate lysis assay (spectrum of lytic activity). It is filed as cell-based. Details: key: strong lytic zone = ++; weak lytic zone = +; no lytic zone = −. The settings on record: 6 μg. On the procedure:
as §1

For data set [9], the system named is Staphylococcus aureus, NRS-382. Description: plate lysis assay (spectrum of lytic activity). The class given is cell-based. Details: key: strong lytic zone = ++; weak lytic zone = +; no lytic zone = −. The settings on record: 6 μg; S. aureus NRS-382, MRSA. Here is the method:
as §1

In data set [10] the test system is Streptococcus suis, 730082. Description: plate lysis assay (spectrum of lytic activity). Details: key: strong lytic zone = ++; weak lytic zone = +; no lytic zone = −. It is filed as cell-based. The conditions noted are these: 6 μg. Here is the method:
as §1

Data set [11] relates to Staphylococcus aureus, NRS-14. Description: plate lysis assay (spectrum of lytic activity). It is filed as cell-based. Details: key to strength of lytic zone: strong lytic zone = ++; weak lytic zone = +; no lytic zone = −. The settings on record: 6 μg; S. aureus NRS-14, VISA. Here is the method:
as §1

Data set [12] relates to Staphylococcus aureus, NRS-384. Description: plate lysis assay (spectrum of lytic activity). It is filed as cell-based. Details: key to strength of lytic zone: strong lytic zone = ++; weak lytic zone = +; no lytic zone = −. The conditions noted are these: 6 μg. Here is the method: as §1
Data set [13] concerns Staphylococcus epidermidis, NRS-101. Description: plate lysis assay (spectrum of lytic activity). It is filed as cell-based. Details: key to strength of lytic zone: strong lytic zone = ++; weak lytic zone = +; no lytic zone = −. The conditions noted are these: 6 μg. On the procedure: as §1
Data set [14] has as its system Staphylococcus aureus, NRS-71. Description: plate lysis assay (spectrum of lytic activity). It is filed as cell-based. Details: key to strength of lytic zone: strong lytic zone = ++; weak lytic zone = +; no lytic zone = −. The conditions noted are these: 6 μg. Here is the method:
as §1

B1: SH3_5GRCS: PlyGRCS cell wall binding SH3_5 domain, amino acids 150-250, SEQ ID NO: 7 (protein)
chain: NTFGNWKQNQYGTYYRNENATFTCGFLPIFARVGSPKLSEPNGYWFQPNGYTPYDEVCLSDGLVWIGYNWQGTRYYLPVRQWNGKTGNSYSIGLPWGVFS
modifications: Synthetically generated polypeptide (SH3_5GRCS (amino acids 150-250))
For the molecule B1, the Tm in [1] worked out at 44.5 °C. For the same molecule, the “binding to staphylococcal cell wall” value in the data set on S. aureus NRS-14 is “possessed the ability to specifically bind staphylococci”; with S. aureus NRS-14 (listed as SH3_5 binding domain) it was “interact directly with the staphylococcal cell wall”. In addition, the results for the “lytic activity (in words)” value in data set [2] and in data set [2] (listed as SH3_5 binding domain) were “little to no lytic activity” and “lacked activity”, respectively.

B2: CHAPGRCS: PlyGRCS catalytic CHAP domain, amino acids 1-140, SEQ ID NO: 6 (protein)
chain: MKSQQQAKEWIYKHEGTGVDFDGAYGFQCMDLAVAYVYYITDGKVRMWGNAKDAINNDFKGLATVYENTPSFKPQLGDVAVYTNSQYGHIQCVISGNLDYYTCLEQNWLGGGFDGWEKATIRTHYYDGVTHFIRPKFSAS
modifications: Synthetically generated polypeptide (CHAPGRCS (amino acids 1-140))
Regarding B2, the Tm in [1] amounted to 44.8 °C. Moreover, the “strength of lytic zone” value with Bacillus pumulis, BJ0055 is listed as “−”; in [3] it was “−”; in [4], “−”; in data set [5], “−”; in data set [6], “−”; in data set [7] it was “−”. In addition, the “strength of lytic zone” value in data set [8] is recorded as “−”; in [9], “−”; in data set [10] it was “−”; in [11], “−”; in data set [12] (S. aureus NRS-384, MRSA), “+”; in data set [13] (S. epidermidis NRS-101, MRSE), “+”. Further, the “strength of lytic zone” value in [14] (S. aureus NRS-71, MRSA) is on record as “+”. In addition, the “lytic activity on plates (in words)” value in data set [12] (S. aureus NRS-384), in data set [13] (S. epidermidis NRS-101) and in [14] (S. aureus NRS-71) was “relatively weak clearing zones” in each case. Further, the “lytic activity relative to full-length PlyGRCS” value in data set [2] was 8-10%; in [2] (listed as CHAP domain), “about 10%”.
